B1: Pistol ribozyme (parent)
chain: GGGUCGUUGUUCCAUAAUCGCGUGGAUAUGGCACGCAAGUUUCUACCGGGCACCGUAAAUGUCCGACUGGAGCCGUUCGGGCGGCUAUAAACAGACCUCAGGCCCGAAGCGUGGCGGCACCUGCCGCCGGUGGUAAAAAAGAUCGGAAGAGCACACGUCU

Variants of: B1
Assay: aptazyme ON/OFF ratio, guanine; higher = stronger switching; co-transcriptional cleavage with and without guanine

Variant	aptazyme ON/OFF ratio
U8C G9A U11G C12G C13A	1.19
U8C G9A U11G C12G C13U	1.11
U8C G9A U11G C12G C13G	1.19
U8C G9C U10G	1.43
U8C G9C U10C	1.97
U8C G9C U10A	1.51
U8C G9A U10G U11A C12U C13G	1.16
U8C G9A U10G U11A C12U C13U	1.17
U8C G9A U10G U11A C12U C13A	1.1
U8C G9A U11C C12A C13U	1.17
U8C G9A U11C C12A C13G	1.14
U8C G9A U11C C12A C13A	1.15
U8C G9C U10A U11G C12U C13G	1.15
U8C G9C U10A U11G C12U C13A	1.19
U8C G9C U10A U11G C12U C13U	1.22
U8C G9C U10A C12A	1.11
U8C G9C U10A C12U	1.13
U8C G9C U10A C12G	1.25
U8C G9C U10A U11A C12G C13U	1.12
U8C G9C U10A U11A C12G C13G	1.18
U8C G9C U10A U11A C12G C13A	1.1
U8C G9C C12G C13A	1.14
U8C G9C C12G C13U	1.13
U8C G9C C12G C13G	1.14

Variant	aptazyme ON/OFF ratio
U8C G9C U10G U11A C12U C13U	1.04
U8C G9C U10G U11A C12U C13A	1.06
U8C G9C U10G U11A C12U C13G	1.08
U8C G9C U10G U11C C12G C13U	1.17
U8C G9C U10G U11C C12G C13A	1.14
U8C G9C U10G U11C C12G C13G	1.18
U8C G9A U11C C12U C13G	1.08
U8C G9A U11C C12U C13U	1.22
U8C G9A U11C C12U C13A	1.16
U8C G9C C12A C13U	1.1
U8C G9C C12A C13G	1.1
U8C G9C C12A C13A	1.08
U8C G9C U10G U11A C12A C13G	1.1
U8C G9C U10G U11A C12A C13A	1.16
U8C G9C U10G U11A C12A C13U	1.1
U8C G9C U11A C12A C13A	1.09
U8C G9C U11A C12A C13U	1.05
U8C G9C U11A C12A C13G	1.12
U8C G9A U10G U11A C12G C13A	1.19
U8C G9A U10G U11A C12G C13G	1.35
U8C G9A U10G U11A C12G C13U	1.22
U8C G9C U10C U11G C12A C13G	1.16
U8C G9C U10C U11G C12A C13U	1.15
U8C G9C U10C U11G C12A C13A	1.2

Variant	aptazyme ON/OFF ratio
U8C G9C U10C U11A C12G C13U	1.1
U8C G9C U10C U11A C12G C13A	1.06
U8C G9C U10C U11A C12G C13G	1.08
U8C G9C U10A U11A C13G	1.17
U8C G9C U10A U11A C13A	1.15
U8C G9C U10A U11A C13U	1.09
U8C G9C U11A C12U C13A	1.12
U8C G9C U10G C12A C13A	1.13
U8C G9C U10G C12A C13U	1.09
U8C G9C U10G C12A C13G	1.08
U8C G9A U10G C12A C13G	1.1
U8C G9A U10G C12A C13A	1.27
U8C G9A U10G C12A C13U	1.28
U8C G9C U10C U11A	1.02
U8C G9C U10C U11C	0.964
U8C G9C U10C U11G	0.956
U8C G9C U10C U11A C13U	1.04
U8C G9C U10C U11A C13A	1.01
U8C G9C U10C U11A C13G	1.08
U8C G9A U11A C12U C13U	1.29
U8C G9A U11A C12U C13A	1.21
U8C G9A U11A C12U C13G	1.14
U8C G9C U10A U11G C12G C13A	1.19
U8C G9C U10A U11G C12G C13G	1.11

Variant	aptazyme ON/OFF ratio
U8C G9C U10A U11G C12G C13U	1.09
U8C G9C C13G	1.06
U8C G9C C13U	1.08
U8C G9C C13A	1.05
U8C G9C U10C C12G C13A	1.07
U8C G9C U10C C12G C13G	1.12
U8C G9C U10C C12G C13U	1.08
U8C G9C U10C U11C C12A C13A	1.02
U8C G9C U10C U11C C12A C13U	1.02
U8C G9C U10C U11C C12A C13G	1.04
U8C G9A U10G C12A	1.16
U8C G9A U10G C12U	1.36
U8C G9A U10G C12G	1.15
U8C G9A U10G C13G	1.14
U8C G9A U10G C13U	1.26
U8C G9A U10G C13A	1.28
U8C G9C U10A C12A C13U	1.11
U8C G9C U10A C12A C13A	1.09
U8C G9C U10A C12A C13G	1.15
U8C G9A U11C C12G	1.29
U8C G9A U11C C12A	1.3
U8C G9A U11C C12U	1.16
U8C G9A U11G C12A	1.06
U8C G9A U11G C12U	1.29

Variant	aptazyme ON/OFF ratio
U8C G9A U11G C12G	1.3
U8C G9C U10A U11G C13U	1.13
U8C G9C U10A U11G C13A	1.2
U8C G9C U10A U11G C13G	1.2
U8C G9C U10C U11G C12U C13G	1.1
U8C G9C U10C U11G C12U C13A	1.05
U8C G9C U10C U11G C12U C13U	1.06
U8C G9C U10A U11C C12G C13A	1.23
U8C G9C U10A U11C C12G C13U	1.27
U8C G9C U10A U11C C12G C13G	1.16
U8C G9C U10A U11C C12G	1.2
U8C G9C U10A U11C C12A	1.24
U8C G9C U10A U11C C12U	1.21
U8C G9C U10G U11C C12A C13U	1.13
U8C G9C U10G U11C C12A C13G	1.14
U8C G9C U10G U11C C12A C13A	1.19
U8C G9C U10C C12U C13G	1.07
U8C G9C U10C C12U C13U	1.06
U8C G9C U10C C12U C13A	1.02
U8C G9A U10G	1.57
U8C G9A U10G U11G C13A	1.15
U8C G9A U10G U11G C13G	1.13
U8C G9A U10G U11G C13U	1.09
U8C G9A U11A	1.25

Variant	aptazyme ON/OFF ratio
U8C G9A U11G	1.45
U8C G9A U11C	1.09
U8C G9C U10G U11A C12U	1.02
U8C G9C U10G U11A C12A	1.21
U8C G9C U10G U11A C12G	1.26
U8C G9C U10G U11C	1.12
U8C G9C U10G U11G	1.11
U8C G9C U10G U11A	1.1
U8C G9C U10A C12G C13G	1.15
U8C G9C U10A C12G C13A	1.2
U8C G9C U10A C12G C13U	1.2
U8C G9A U11A C13A	1.2
U8C G9A U11A C13U	1.22
U8C G9A U11A C13G	1.04
U8C G9C U10A U11C C12A C13U	1.22
U8C G9C U10A U11C C12A C13G	1.18
U8C G9C U10A U11C C12A C13A	1.27
U8C G9C U10A U11A C12A	1.12
U8C G9C U10A U11A C12G	1.25
U8C G9C U10A U11A C12U	1.05
U8C G9C U10G U11G C13A	1.11
U8C G9C U10G U11G C13G	1.11
U8C G9C U10G U11G C13U	1.07
U8C G9C C12U C13A	1.05

Variant	aptazyme ON/OFF ratio
U8C G9C C12U C13U	1.13
U8C G9C C12U C13G	1.07
U8C G9C U10C U11A C12U C13G	1.02
U8C G9C U10C U11A C12U C13A	1.02
U8C G9C U10C U11A C12U C13U	1.01
U8C G9C U10A U11G C12A	1.07
U8C G9C U10A U11G C12G	1.32
U8C G9C U10A U11G C12U	1.22
U8C G9C U10G C13U	1.11
U8C G9C U10G C13A	1.1
U8C G9C U10G C13G	1.19
U8C G9C U10C U11C C12U C13A	1.05
U8C G9C U10C U11C C12U C13G	1
U8C G9C U10C U11C C12U C13U	1.01
U8C G9C U10G C12U	1.12
U8C G9C U10G C12G	1.19
U8C G9C U10G C12A	1.2
U8C G9C U10C U11G C12U	1.07
U8C G9C U10C U11G C12A	1.1
U8C G9C U10C U11G C12G	1.11
U8C G9A U11G C12A C13A	1.22
U8C G9A U11G C12A C13G	1.29
U8C G9A U11G C12A C13U	1.27

Reference: the RNAGym collection of RNA variant scans (doi:10.1021/acssynbio.7b00057)
